Laboratory results from article PMC8922439.

Experiments:
[1] = molecular target: mRNA-expressed CH848 10.17DT DS SOSIP trimer (HIV-1 (CH848 10.17)); experiment: SEC
[2] = molecular target: mRNA-expressed CH848 10.17DT SOSIPv4.1 trimer (HIV-1 (CH848 10.17)); experiment: SEC

Row | Substance | stoichiometry N [1] | stoichiometry N [2]
1 | mRNA-expressed CH848 10.17DT DS SOSIP trimer (domain or fragment) | 3 | –
2 | mRNA-expressed CH848 10.17DT SOSIPv4.1 trimer (domain or fragment) | – | 3
